Measurements reported in US20120041185A1, “dTDP-BETA-D-FUCOFURANOSE, ITS PREPARATION METHOD AND USE” (TIANJIN BIOCHIP TECHNOLOGY CORPORATION, priority 2007, published 2012).

B1: Fcf2: dTDP-D-Fucp mutase of E. coli O52 converting dTDP-D-Fucp to dTDP-D-Fucf, 377 amino acids, SEQ ID NO:4 (protein)
chain: MNKVLIIGSGFSGATIARLLAEENIKVKIIDDRKHIGGNCYDERDEKTGINVHVYGPHIFHTDNEDVWNFVNKYGTFQPYTTRLKANAKGQIYSLPVNLHTINQYYKTALSPTEARKLIASKGDQTINDPQSFEEQALKFVGEDLYKTFFYGYPKKQWGMEPKEIPASVLKRLPVRFNYDDNYFFHKFQGIPRDGYTPLFQNLLNHPNIEFELGKKVNRATVEELITSEQYGHVFFSGAIDHFYDYEFGMLQYRTLDFEKFYSEDDDYQGCVVMSYCDEDVPYTRVTEHKYFTPWEEHKGSVLYKEFSRSCDKEDIPYYPVRLVSGNSIWNKYEQKAKEETNITFIGRLATYRYLDMDVCIKEAIECAQLYIKNNKE
modifications: E. coli O52
B2: Fcf1: dTDP-6-deoxy-D-xylo-hex-4-ulopyranose reductase of E. coli O52, 316 amino acids, SEQ ID NO:3 (protein)
chain: MDARKNGVLITGGAGFIGKALITEMVERQIPLVSFDISDKPDSLPELSEYFNWYKFSYLESSQRIKELHEIVSRHNIKTVIHLATTMFPHESKKNIDKDCLENVYANVCFFKNLYENGCEKIIFASSGGTVYGKSDTPFSEDDALLPEISYGLSKVMTETYLRFIAKELNGKSISLRISNPYGEGQRIDGKQGVIPIFLNKISNDIPIDIIGSIESKRDYIYISDLVQAFMCSLEYEGHEDIFNIGSGESITLKKLIETIEFKLNKKAVIGFQDPIHTNANGIILDIKRAMAELGWRPTVVLDDGIDKLIKSIRCK
modifications: E. coli O52

Experiments:
[1] = Enzyme activity assay of Fcf2: temperature optima (capillary electrophoresis); assay type: biochemical, E. coli O52; settings: for Transformation rate (%): 3 hours, 2 mM dTDP-D-fucose, 3.9 μM enzyme
Method: 25 μl reactions in 0.5 ml centrifugal tube contain 2 mM dTDP-D-fucose, 50 mM Tris-HCl buffer (pH 7.4) 5 mM divalent ion chloride and 3.9 μM recombinant dTDP-D-Glcfucofuranose mutase protein purified in example 2. The reactions are proceeded at certain temperature for 3 hours. Then add chloroform of equal volume to extract protein. The aqueous phase is detected by Beckman Coulter P/ACE MDQ capillary electrophoresis.

[2] = Enzyme activity assay of Fcf1: temperature optima and kinetic parameters (capillary electrophoresis); assay type: biochemical, E. coli O52; settings: for Transformation rate (%): 2 hours, 2 mM dTDP-D-Glco, 3 mM NADPH, 0.25 μM enzyme
Method: 20 μl reactions in 0.5 ml centrifugal tube contain 2 mM dTDP-D-Glco, 3 mM NADPH, 50 mM Tris-HCl buffer (pH7.4), 5 mM divalent ion chloride and 0.25 μM recombinant dTDP-D-GIcO reductase protein purified in example 2. The reactions are proceeded at certain temperatures for 2 hours. Then add chloroform of equal volume to extract protein. The aqueous phase is detected by Beckman Coulter P/ACE MDQ capillary electrophoresis.
In the condition of the foregoing reaction (37° C., 3 mM MADPH, 50 mM Tris-HCl buffer (pH 7.4), 0.25 μM enzyme, 30 seconds), the concentration of dTDP-GIcO is 0.1-1 mM. Measure the concentration of dTDP-Qui4N.

[3] = 37° C., pH 7.4, 0.25 μM enzyme, 30 seconds, dTDP-GIcO 0.1-1 mM, Michaelis-Menten equation

Molecule | Transformation rate (%) ([1]; 4° C.) | Transformation rate (%) ([1]; 15° C.) | Transformation rate (%) ([1]; 25° C.) | Transformation rate (%) ([1]; 37° C.) | Transformation rate (%) ([1]; 50° C.) | Transformation rate (%) ([1]; 65° C.) | Transformation rate (%) ([1]; 80° C.) | optimum temperature for the enzyme activity ([1]; standard reactions at 4-80° C.) [°C] | Transformation rate (%) ([2]; 4° C.) | Transformation rate (%) ([2]; 15° C.) | Transformation rate (%) ([2]; 25° C.) | Transformation rate (%) ([2]; 37° C.) | Km [2, 3] [µM] | kcat [2, 3] [s⁻¹] | Transformation rate (%) ([2]; 50° C.) | Transformation rate (%) ([2]; 65° C.) | Transformation rate (%) ([2]; 80° C.) | optimum temperature for the enzyme activity ([2]; standard reactions at 4-80° C.)
B1 | 1.6 | 9.5 | 9.6 | 9.6 | 4.7 | 0 | 0 | 37 |  |  |  |  |  |  |  |  |  | 
B2 |  |  |  |  |  |  |  |  | 47.0 | 100 | 100 | 100 | 540 | 15.9 | 35.5 | 31 | 22 | 15-37 °C
